Where a chain is given by its changes, count along the chain named. Like-named read-outs stand apart in the source and are kept apart here. Ends that are not written are not given here. * marks the point of attachment. Biotin = O=C1N[C@H]2[C@H](CS[C@H]2CCCCC(=O)*)N1
What was measured:
[1] = molecular target: T1, aggregated A-beta(1-40) peptide (BAA) (human); assay: BAA ELISA
T1 construct: also called A-beta peptide aggregates

[2] = molecular target: T2, human A-beta(1-40) peptide, monomeric (BAM) (human, biotin at the C-terminus in capture ELISA, SPR and TR-FRET; not biotinylated where coated directly (Example 7)); assay: cell-based or functional assay
[3] = molecular target: T2, human A-beta(1-40) peptide, monomeric …; assay: TR-FRET competition
[4] = molecular target: T2, human A-beta(1-40) peptide, monomeric …; assay: ABII050 TR-FRET competition assay
[5] = molecular target: T2, human A-beta(1-40) peptide, monomeric …; assay: BAM ELISA
[6] = molecular target: T2, human A-beta(1-40) peptide, monomeric …; assay: TR-FRET competition; labelled competitor not given
[7] = molecular target: T2, human A-beta(1-40) peptide, monomeric …; assay: cell-based or functional assay; remark: listed apart in the source
[8] = molecular target: T2, human A-beta(1-40) peptide, monomeric …; assay: BAM ELISA; remark: listed apart in the source
[9] = molecular target: T2, human A-beta(1-40) peptide, monomeric …; assay: TR-FRET competition, mean IC50
A-beta(12-28) peptide = molecular target: T3, A-beta(12-28) peptide (human); assay: SPR on captured A-beta(12-28)
T3 construct: Bachem peptide captured on streptavidin chip; also called monomeric A-beta(12-28); central region
T3 peptide: Biotin-VHHQKLVFFAEDVGSNK
Method: (§1) After capturing, surfaces are blocked by injecting an excess (200 μg/ml) of d-biotin for 180 s at 5 μl/min. A reference surface is washed and blocked with d-biotin. HBS-EP+buffer is used as the running buffer and experiments are performed at 25° C. For off-rate screening, periplasmic extracts of VHHs are injected at a 10-fold dilution for 2 min at 45 μl/min and are allowed to dissociate for 10 min. […] Between different VHH samples, the surfaces are regenerated with regeneration buffer (50 mM NaOH) for 25 s at 45 μl/min followed by 10 s 6M GuHCl at 45 μl/min if regeneration is incomplete. […] Data are double referenced by subtraction of the curves on the reference channel and of a blank running buffer injection. Sensorgrams are evaluated by fitting a 1:1 dissociation model using the Biacore T100 Evaluation software v1.1.1.

[10] = molecular target: T2, human A-beta(1-40) peptide, monomeric …; assay: TR-FRET competition, labelled ABII60A10
[11] = molecular target: T2, human A-beta(1-40) peptide, monomeric …; assay: 42D4 TR-FRET assay (labelled ABII42D4)
[12] = molecular target: T2, human A-beta(1-40) peptide, monomeric …; assay: TR-FRET competition; remark: listed apart in the source
[13] = molecular target: T2, human A-beta(1-40) peptide, monomeric …; assay: 60A10 TR-FRET assay (labelled ABII60A10)
[14] = molecular target: T1, aggregated A-beta(1-40) peptide (BAA); assay: BAA ELISA; remark: listed apart in the source
[15] = molecular target: T4, human A-beta peptide (residues 1-24) (human); assay: crystal structure
T4 construct: used for co-crystallisation; also called A-beta(1-24)
T4 sequence (peptide, as listed by the source): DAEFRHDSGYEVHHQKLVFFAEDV
Method: The complex is concentrated by diafiltration to a concentration of 4 mg/ml. Crystallization trials are set up as sitting drop vapour diffusion experiments by mixing 200 nl of protein with 200 nl of reservoir solution against a reservoir volume of 100 μl. […] Data are collected at the beamline 6SA of the swiss light source at the Paul-Scherrer Institute in Villigen, Switzerland.

[16] = molecular target: T2, human A-beta(1-40) peptide, monomeric …; assay: ELISA, format not stated
[17] = molecular target: T2, human A-beta(1-40) peptide, monomeric …; assay: TR-FRET competition, labelled ABII42D4
[18] = molecular target: T2, human A-beta(1-40) peptide, monomeric …; assay: SPR, captured C-terminally biotinylated A-beta(1-40), 1:1 model
Method: as §1

[19] = molecular target: T2, human A-beta(1-40) peptide, monomeric …; assay: SPR (Biacore T100), periplasmic extracts on captured biotinylated A-beta(1-40), 1:1 model
Method: as §1

A-beta(1-16) peptide = molecular target: T5, A-beta(1-16) peptide (human); assay: SPR on captured A-beta(1-16)
T5 construct: Bachem peptide captured on streptavidin chip; also called monomeric A-beta(1-16)
T5 peptide: DAEFRHDSGYEVHHQK-biotin
Method: as §1

[20] = molecular target: T2, human A-beta(1-40) peptide, monomeric …; assay: TR-FRET competition, labelled ABII42D4; remark: listed apart in the source
[21] = molecular target: T2, human A-beta(1-40) peptide, monomeric …; assay: TR-FRET competition and SPR
[22] = molecular target: T2, human A-beta(1-40) peptide, monomeric …; assay: ABII002 TR-FRET competition assay
[23] = molecular target: T2, human A-beta(1-40) peptide, monomeric …; assay: TR-FRET competition, mean IC50; mean IC50 of Table XII
[24] = molecular target: T6, mouse A-beta(1-40) peptide (mouse); assay: ELISA EC50
T6 construct: Bachem peptide coated directly; also called rodent A-beta(1-40)
T6 peptide: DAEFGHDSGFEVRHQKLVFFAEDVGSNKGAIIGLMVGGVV

[25] = molecular target: T2, human A-beta(1-40) peptide, monomeric …; assay: ELISA, peptide coated at 2 µg/ml, anti-myc detection
[26] = molecular target: T6, mouse A-beta(1-40) peptide; assay: as above
[27] = molecular target: T2, human A-beta(1-40) peptide, monomeric …; assay: TR-FRET competition, labelled ABII60A10; remark: listed apart in the source
[28] = molecular target: T7, pGlu-A-beta(1-28), C-terminally biotinylated (human, pyroglutamate formed from the glutamate at position 3 (N-terminus); biotin at the C-terminus); assay: SPR on captured C-terminally biotinylated pGlu-A-beta(1-28), 1:1 model
T7 construct: printed as pGlu-A-beta(1-28), while the text says that the first two N-terminal residues are missing; range 3-28 is my reading; also called pyroglutamyl-Abeta
T7 sequence (peptide, as listed by the source): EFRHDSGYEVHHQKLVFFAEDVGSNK
From the text: Association and dissociation curves can be fitted using a 1:1 interaction model and an accurate KD value can be determined.

[29] = molecular target: T2, human A-beta(1-40) peptide, monomeric …; assay: ABII002 TR-FRET competition assay; remark: listed apart in the source

B1: ABII60A10 = ABII050 (VHH)
VHH: EVQLVESGGGLVQAGGSLRLSCAASGRTFNNYNMGWFRQAPGKEREFVAAVSRSGVSTYYADSVKGRFTISRDNAKNAVYLQMNSLKPEDTAIYYCGAAYRGTAINVRRSYDSWGQGTQVTVSS
[1]
  EC50: 0.8 nM
[2]
  Aggregation inhibition (% inhibition at 26 µM): 80%
[3]
  fold improved IC50 against reference VHH 2D2: 36 fold
[4]
  IC50: 6.3 nM
[5]
  EC50: 4.9 nM
[6]
  IC50: 19 nM
[7]
  inhibition of peptide aggregation (ThT fluorescence), 28 µM VHH: 80%
[8]
  EC50: 4.9 nM
[9]
  IC50: 19 nM
A-beta(12-28) peptide
  binding result: binds
[10]
  IC50: 11.1 nM
[11]
  IC50: > 1000 nM
[12]
  IC50: 11.1 nM
[13]
  IC50: 30 nM
[14]
  EC50: 0.8 nM

B2: ABII059 (VHH)
VHH: B1 VHH with V5L, A14P, E44G, A75S, A78T, K87R, I93V, G97A, D112S, Q119L
notes: humanized variant of ABII050
[15]
  binding result: binds
[2]
  Aggregation inhibition (% inhibition at 26 µM): 80%
[4]
  IC50: 12.8 nM
[6]
  IC50: 33 nM
[16]
  fold difference of EC50 against the 2D2 and 2G6 VHHs: > 50 fold
[9]
  IC50: 33 nM

B3: reference VHH 2G6 (VHH)
VHH: QVKLEESGGGLVQPGGSLRLSCAASGFTFSNYWMYWVRQAPGKGLEWVSTISPRAANTYYADSVKGRFTISRDNAKNTLYLQMNSLEPDDTALYYCAKSLRYRDRPQSSDFLFWRQGTQVTVSS
notes: from WO2006/40153
[1]
  EC50: 7.2 nM
[2]
  Aggregation inhibition (% inhibition at 26 µM): 29%
[5]
  EC50: 98.6 nM
[17]
  IC50: > 1000 nM
[8]
  EC50: 98.6 nM
[12]
  IC50: > 1000 nM
[14]
  EC50: 7.2 nM

B4: ABII42D4 (VHH)
VHH: EVQLVESGGGLVLAGGSLRLSCVHSGPTFSTDTMGWFRQAPGKEREFVAAVTWNSGRTNYADSVKGRFTVSRDNTRNAAYLQMSGLKDEDTAVYYCTAHRLVVGGTSVGDWRYWGQGTQVTVSS
notes: also called ABIIPMP42D4
[1]
  EC50: 0.9 nM
[3]
  fold improved IC50 against reference VHH 2G6: ≥ 21 fold
[18]
  Kd: 16 nM
[19]
  koff: 0.0061 s⁻¹
A-beta(1-16) peptide
  binding result: binds
[20]
  IC50: 44 nM
[5]
  EC50: 14.2 nM
[17]
  IC50: 46.8 nM
[8]
  EC50: 14.2 nM
[11]
  IC50: 51 nM
[12]
  IC50: 46.8 nM
[13]
  IC50: > 1000 nM
[14]
  EC50: 0.9 nM

B5: ABII111B5_E109Q (VHH)
VHH: B4 VHH with S30R, T58I, L101F, T106N, S107M, G109Q
notes: targeted mutant
[21]
  fold improvement of IC50 and KD over original ABII42D4: > 10 fold
[20]
  IC50: 3.7 nM

B6: ABII111B5_M107E (VHH)
VHH: B4 VHH with S30R, T58I, L101F, T106N, S107E, G109E
notes: targeted mutant
[21]
  fold improvement of IC50 and KD over original ABII42D4: > 10 fold
[20]
  IC50: 4.3 nM

B7: ABII111B5_M107R = ABII002 (VHH)
VHH: B4 VHH with S30R, T58I, L101F, T106N, S107R, G109E
notes: myc-tagged in ELISA
[21]
  fold improvement of IC50 and KD over original ABII42D4: > 10 fold
[22]
  IC50: 2.9 nM
[23]
  IC50: 2 nM
[20]
  IC50: 2.9 nM
[24]
  fold difference mouse against human A-beta: 1.8 fold
[25]
  EC50: 1.8 nM
[26]
  EC50: 3.3 nM

B8: ABII60G11 (VHH)
VHH: EVQLVESGGGSEQAGGSLRLSCATSGRAFSVYAWFRQAPGKERTFVAAVAWVGGSTFYSDSVKGRFTISRDNAKNTVFLHMNSLKPEDTAAYYCAARLYGGRWYNSPRVDDFEYWGQGTQVTVSS
[19]
  koff: 0.027 s⁻¹
[8]
  EC50: 187 nM
A-beta(12-28) peptide
  binding result: binds
[10]
  IC50: 34.4 nM
[14]
  EC50: 6 nM

B9: monoclonal antibody m266 (IgG) (antibody, V domains shown)
VH: EVKLVESGGGLVQPGGSLKLSCAVSGFTFSRYSMSWVRQTPEKRLELVAQINSVGNSTYYPDTVKGRFTISRDNAEYTLSLQMSGLRSDDTATYYCASGDYWGQGTTLTVSS
VL: DVVMTQTPLSLPVSLGDQASISCRSSQSLIYSDGNAYLHWFLQKPGQSPKLLIYKVSNRFSGVPDRFSGSGSGTDFTLKISRVETEDLGVYFCSQSTHVPWTFGGGTKLEIK
notes: also called IgG m266; IgG266
[27]
  IC50: 0.5 nM
[4]
  IC50: 0.53 nM
[28]
  Kd: 0.224 nM

B10: ABII315-PEG20 (designed binder)
chain: EVQLLESGGGLVQPGGSLRLSCAASGRTFNNYNMGWFRQAPGKGREFVAAVSRSGVSTYYADSVKGRFTISRDNSKNTVYLQMNSLRPEDTAVYYCAAAYRGTAINVRRSYSSWGQGTLVTVSSGGGGCGGGSEVQLLESGGGLVQPGGSLRLSCVHSGPTFRTDTMGWFRQAPGKGREFVAAVTWNSGRINYADSVKGRFTISRDNSKNTAYLQMNSLRPEDTAVYYCAAHRFVVGGNRVEDWRYWGQGTLVTVSS
modifications: PEG20 on the Cys at position 5 of the 9GS linker
notes: 059-9GSC-035; purified as His6-tagged construct before PEGylation
[22]
  IC50: 0.13 nM
[4]
  IC50: 0.28 nM
[29]
  fold improved IC50 against monovalent ABII035: 27 fold
  fold improved potency against 3D6 IgG: 14.6 fold
